The values below are quoted from earlier work in publication PMC9776232.

In general, Kd refers to the concentration at which binding is half-saturated.

The target of this series is Amyloid beta (Homo sapiens) (UniProt P05067).
Sequence of Amyloid beta (Homo sapiens) (P05067 672-711): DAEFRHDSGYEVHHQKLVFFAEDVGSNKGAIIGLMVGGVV

Sequence of L-PGDS (P41222 23-190): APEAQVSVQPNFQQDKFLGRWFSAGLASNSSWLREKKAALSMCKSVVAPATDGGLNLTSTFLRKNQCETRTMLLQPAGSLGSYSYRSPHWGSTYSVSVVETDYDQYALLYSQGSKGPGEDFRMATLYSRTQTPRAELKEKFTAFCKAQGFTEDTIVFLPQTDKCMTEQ

Consider L-PGDS (from UniProt P41222), for which the Kd was 34 nM.
